First the molecules themselves.
B1: Nuclear RNAi defective-3 protein (Caenorhabditis elegans), Q21691 (parent)
chain: MDLLDKVMGEMGSKPGSTAKKPATSASSTPRTNVWGTAKKPSSQQQPPKPLFTTPGSQQGSLGGRIPKREHTDRTGPDPKRKPLGGLSVPDSFNNFGTFRVQMNAWNLDISKMDERISRIMFRATLVHTDGRRFELSLGVSAFSGDVNRQQRRQAQCLLFRAWFKRNPELFKGMTDPAIAAYDAAETIYVGCSFFDVELTEHVCHLTEADFSPQEWKIVSLISRRSGSTFEIRIKTNPPIYTRGPNALTLENRSELTRIIEAITDQCLHNEKFLLYSSGTFPTKGGDIASPDEVTLIKSGFVKTTKIVDRDGVPDAIMTVDTTKSPFYKDTSLLKFFTAKMDQLTNSGGGPRGHNGGRERRDGGGNSRKYDDRRSPRDGEIDYDERTVSHYQRQFQDERISDGMLNTLKQSLKGLDCQPIHLKDSKANRSIMIDEIHTGTADSVTFEQKLPDGEMKLTSITEYYLQRYNYRLKFPHLPLVTSKRAKCYDFYPMELMSILPGQRIKQSHMTVDIQSYMTGKMSSLPDQHIKQSKLVLTEYLKLGDQPANRQMDAFRVSLKSIQPIVTNAHWLSPPDMKFANNQLYSLNPTRGVRFQTNGKFVMPARVKSVTIINYDKEFNRNVDMFAEGLAKHCSEQGMKFDSRPNSWKKVNLGSSDRRGTKVEIEEAIRNGVTIVFGIIAEKRPDMHDILKYFEEKLGQQTIQISSETADKFMRDHGGKQTIDNVIRKLNPKCGGTNFLIDVPESVGHRVVCNNSAEMRAKLYAKTQFIGFEMSHTGARTRFDIQKVMFDGDPTVVGVAYSLKHSAQLGGFSYFQESRLHKLTNLQEKMQICLNAYEQSSSYLPETVVVYRVGSGEGDYPQIVNEVNEMKLAARKKKHGYNPKFLVICTQRNSHIRVFPEHINERGKSMEQNVKSGTCVDVPGASHGYEEFILCCQTPLIGTVKPTKYTIIVNDCRWSKNEIMNVTYHLAFAHQVSYAPPAIPNVSYAAQNLAKRGHNNYKTHTKLVDMNDYSYRIKEKHEEIISSEEVDDILMRDFIETVSNDLNAMTINGRNFWA
partner: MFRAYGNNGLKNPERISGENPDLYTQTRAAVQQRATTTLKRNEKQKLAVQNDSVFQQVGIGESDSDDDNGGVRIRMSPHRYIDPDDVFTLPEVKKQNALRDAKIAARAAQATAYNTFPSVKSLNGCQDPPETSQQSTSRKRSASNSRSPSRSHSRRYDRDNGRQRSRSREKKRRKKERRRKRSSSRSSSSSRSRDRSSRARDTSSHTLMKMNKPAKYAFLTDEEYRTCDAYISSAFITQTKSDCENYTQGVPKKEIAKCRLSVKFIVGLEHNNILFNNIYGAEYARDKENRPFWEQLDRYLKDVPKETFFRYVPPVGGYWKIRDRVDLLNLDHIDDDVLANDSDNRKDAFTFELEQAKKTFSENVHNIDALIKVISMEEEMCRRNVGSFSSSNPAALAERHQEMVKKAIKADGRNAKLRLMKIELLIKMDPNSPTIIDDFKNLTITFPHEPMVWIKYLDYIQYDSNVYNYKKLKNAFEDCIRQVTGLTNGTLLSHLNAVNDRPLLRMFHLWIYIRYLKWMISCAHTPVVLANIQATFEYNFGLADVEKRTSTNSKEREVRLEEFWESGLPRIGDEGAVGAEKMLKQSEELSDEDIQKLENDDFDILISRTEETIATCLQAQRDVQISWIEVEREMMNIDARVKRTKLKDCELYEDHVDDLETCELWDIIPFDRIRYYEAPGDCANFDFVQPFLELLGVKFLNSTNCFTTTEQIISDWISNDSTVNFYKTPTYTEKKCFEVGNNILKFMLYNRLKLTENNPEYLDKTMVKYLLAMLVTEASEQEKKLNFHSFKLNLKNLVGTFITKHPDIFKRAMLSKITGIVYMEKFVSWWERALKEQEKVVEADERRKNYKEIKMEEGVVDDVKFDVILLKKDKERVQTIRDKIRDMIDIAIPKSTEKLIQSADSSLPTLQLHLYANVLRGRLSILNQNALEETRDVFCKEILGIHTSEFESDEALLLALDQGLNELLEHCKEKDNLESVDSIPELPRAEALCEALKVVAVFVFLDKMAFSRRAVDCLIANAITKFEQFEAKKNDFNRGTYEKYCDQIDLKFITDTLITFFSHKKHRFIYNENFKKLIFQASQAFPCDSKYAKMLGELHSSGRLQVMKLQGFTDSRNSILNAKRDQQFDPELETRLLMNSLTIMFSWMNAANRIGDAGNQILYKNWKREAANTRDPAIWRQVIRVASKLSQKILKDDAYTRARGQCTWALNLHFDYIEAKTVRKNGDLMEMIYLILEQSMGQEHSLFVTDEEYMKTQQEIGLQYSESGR

This test covers variants of B1. The following applies: with nrde2_caeel nrde-2, G5EG51.
As for K80A;R81A;K82A, the “effect of a mutation on the interaction” value is given as “disrupting interaction”.

Source of the values: IntAct's records for PubMed 20543824.
